Results: US20190382462A1, “METHODS AND COMPOSITIONS FOR TREATING HPA HYPERACTIVITY” (priority 2017, published 2019)
Positions count from the first letter of the chain named. Numbers in names are those of the source. Read-outs that look alike come from different tables or passages of the source.

Assays:
CRF [1] = biological target: T1, CRF (Homo sapiens, UniProt P06850); conditions: cited from earlier work
T1 construct: Biotinylated CRF was immobilized on an avidin-coated ELISA plate
T1 sequence (P06850 154-194 limits assumed): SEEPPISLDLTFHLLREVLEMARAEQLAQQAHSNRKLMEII

[2] = humans; cited from earlier work
Ucn1 = biological target: T2, Ucn1 (Homo sapiens, UniProt P55089); conditions: cited from earlier work
T2 construct: the related peptide urocortin 1 (Ucn1)
T2 sequence (P55089 83-122 limits assumed): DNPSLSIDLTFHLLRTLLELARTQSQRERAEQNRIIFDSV

C57BL/6J mice = assay: Shock-induced freezing test (mild footshock stress model); assay type: in vivo, mouse
Protocol: (§1) FIG. 2A and FIG. 2B: Serum concentration of CRF-BP-Fc. FIG. 2A: A CRF-BP-Fc fusion protein (SEQ ID NO:16), composed of CRF-BP (25-322) fused to mouse IgG1 Fc was administered to C57B16 mice at 2 doses (15 μg/mouse and 45 μg/mouse). […] FIG. 2B: Freezing in response to mild footshock, a mouse model of stress, was reduced in mice treated with the CRF-BP-Fc fusion protein on the day of treatment (*<0.05 from vehicle-treated mice).
SIF is a defensive behavior observed in response to fearful stimuli exposure (163), and it is used to determine the efficacy of the constructs under study (FIG. 1B). Testing takes place in a Mouse NIR Video Fear Conditioning System (Med Associates, St. Albans, Vt.) housed in soundproof boxes. The session consists of a 2-min habituation period followed by three 1.5 mA footshocks lasting 1 sec and separated by 20 sec. Duration of freezing behavior is measured for 15 min. Freezing behavior, i.e., the absence of all voluntary movements except breathing, is measured in all sessions by real-time digital video recordings calibrated to distinguish between subtle movements such as whisker twitch or tail flick and freezing behavior. This test is performed at days 1 and 4 after administration. Before and after footshock, mice are bled as outlined above for determination of serum corticosterone and compound levels. […]

corticosterone (CORT) = assay: Serum corticosterone (CORT) under repeated footshock stress; assay type: in vivo; conditions: single administration 45 μg/mouse, C57Bl6 mice
Protocol: FIG. 3: Administration of a CRF-BP-Fc fusion (SEQ ID NO: 16) delayed the increased in basal serum glucocorticoid levels (“CORT” in pg/mL×1000), resulting from repeated stress. Repeated delivery of footshock to mice (dotted vertical lines indicate times for delivery of footshock) results in elevated baseline serum corticosterone (CORT) level in C57B16 mice (black circles), indicative of a chronic stress state. A single administration of CRF-BP-Fc fusion protein at a dose of 45 μg/mouse delayed such increase of baseline serum CORT (black squares). O=vehicle-treated mice; 45=CRF-BP-Fc-treated mice at 45 μg/mouse; *=p<0.05 from […]; CORT: plasma corticosterone levels (ng/ml).
CRFBP-Fc fusion protein was administered to C57B16 mice at a dose of 300 μg/mouse. Data points represent CORT concentration before and after injection of CRFBP-Fc containing IgG2-derived Fc (drug) and at 3 time points preceding repeated footshocks (FS). […] 3 hr after injection compared to vehicle group (**p<0.01, Fisher's LSD).
Stimulated CORT concentrations after injection of CRFBP-Fc containing IgG2-derived Fc and at 3 time points after repeated footshocks (FS). […] 3 hr after injection, FS1, and FS2 compared to vehicle group, respectively (*p<0.05, ****p<0.0001, Fisher's LSD). […]

CRF [3] = biological target: T1, CRF; assay: CRF binding ELISA (biotinylated CRF on avidin-coated plate); conditions: data not shown
Excerpt: Biotinylated CRF was immobilized on an avidin-coated ELISA plate. […] OD=optical density.

[4] = Single-dose serum pharmacokinetics of CRF-BP-Fc in mice (sandwich ELISA); assay type: in vivo, mouse; conditions: two doses (15 and 45 μg) in mice
Protocol: as §1
Mice are bled at 1, 6, and 12 hours and at 1, 2, 4, 6, 8, and 12 days post-injection by retro-orbital bleeding. […] The present blood sampling times presuppose a half-life value closer to those reported for human IgG in the mouse.
Concentrations in sera over time of CRF-BP-Fc or CRF-BP-albumin constructs are measured with a sandwich ELISA, which has already been established with a lower limit of detection of 1 ng/ml in serum. This ELISA assay consists of immobilized biotinylated CRF to capture serum CRF-BP-Fc on avidin plates followed by detection with a commercial anti-Fc antibody. This assay is used to monitor the serum concentration of CRF-BP-Fc in preliminary studies. CRF-BP-albumin constructs are detected with the same design using antibodies to albumin and blocking reagents designed for albumin ELISA quantification (e.g., Serum Albumin Sandwich ELISA Kit from LifeSpan BioSciences). […]

r/hCRF = biological target: T3, r/hCRF (Homo sapiens, UniProt P06850); conditions: cited from earlier work; for loss of affinity for r/hCRF: alanine mutants of CRF-BP
T3 sequence (P06850 154-194 limits assumed): T1 sequence (P06850 154-194 limits assumed)

rUcn 1 = biological target: T4, rUcn 1 (Rattus norvegicus, UniProt P55090); conditions: cited from earlier work; for loss of affinity for rUcn 1: alanine mutants of CRF-BP
T4 sequence (P55090 81-120 limits assumed): T2 sequence (P55089 83-122 limits assumed) with N2D, S4P

B1: CRF-BP: binding protein that specifically binds to CRF (protein, UniProt P24387 25-322, looked up)
Corticotropin-releasing …: YLELREAADYDPFLLFSANLKRELAGEQPYRRALRCLDMLSLQGQFTFTADRPQLHCAAFFISEPEEFITIHYDQVSIDCQGGDFLKVFDGWILKGEKFPSSQDHPLPSAERYIDFCESGLSRRSIRSSQNVAMIFFRVHEPGNGFTLTIKTDPNLFPCNVISQTPNGKFTLVVPHQHRNCSFSIIYPVVIKISDLTLGHVNGLQLKKSSAGCEGIGDFVELLGGTGLDPSKMTPLADLCYPFHGPAQMKVGCDNTVVRMVSSGKHVNRVTFEYRQLEPYELENPNGNSIGEFCLSGL
**Q.** With B1 as the molecule, how does the Kd (CRF [1]; range printed without naming the ligand, read-out: KD (high affinity of CRF-BP)) read?
**A.** The Kd was 0.1 to 0.2 nM.

**Q.** And the Kd (CRF [1]; read-out: KD for CRF)?
**A.** Its Kd is 0.2 nM.

**Q.** What about the plasma half-life [2] of the same molecule?
**A.** The plasma half-life was “minutes”.

**Q.** And the Kd (Ucn1)?
**A.** The Kd was 0.1 nM.

B2: CRF-BP-Fc (SEQ ID NO:16): fusion protein composed of CRF-BP (25-322) fused to mouse IgG1 Fc (protein, listed as Mus musculus)
chain: MSPNFKLQCHFILIFLTALRGESRYLELREAADYDPFLLFSANLKRELAGEQPYRRALRCLDMLSLQGQFTFTADRPQLHCAAFFISEPEEFITIHYDQVSIDCQGGDFLKVFDGWILKGEKFPSSQDHPLPSAERYIDFCESGLSRRSIRSSQNVAMIFFRVHEPGNGFTLTIKTDPNLFPCNVISQTPNGKFTLVVPHQHRNCSFSIIYPVVIKISDLTLGHVNGLQLKKSSAGCEGIGDFVELLGGTGLDPSKMTPLADLCYPFHGPAQMKVGCDNTVVRMVSSGKHVNRVTFEYRQLEPYELENPNGNSIGEFCLSGLTGGCKPCICTVPEVSSVFIFPPKPKDVLTITLTPKVTCVVVDISKDDPEVQFSWFVDDVEVHTAQTQPREEQFNSTFRSVSELPIMHQDWLNGKEFKCRVNSAAFPAPIEKTISKTKGRPKAPQVYTIPPPKEQMAKDKVSLTCMITDFFPEDITVEWQWNGQPAENYKNTQPIMDTDGSYFVYSKLNVQKSNWEAGNTFTCSVLHEGLHNHHTEKSLSHSPGK
**Q.** With B2 as the molecule, how does the “circulating serum concentrations effective in reducing behavioral responses to stress” value (C57BL/6J mice; mice) read?
**A.** The value was 1 to 3 µg/mL.

**Q.** And the “freezing in response to mild footshock” value (C57BL/6J mice; single administration, day of treatment, vs vehicle-treated mice)?
**A.** The value was “reduced”.

**Q.** And the “increase in basal serum glucocorticoid (CORT) levels resulting from repeated stress” value (corticosterone (CORT))?
**A.** The value was “delayed”.

**Q.** And the “effect of fusion to mouse IgG1 Fc on CRF binding” value (CRF [3])?
**A.** The value was “did not alter CRF binding”.

**Q.** What about the “pharmacokinetic profile from serum concentrations” value [4] of the same molecule?
**A.** The value was “linear pharmacokinetics with a biexponential profile”.

B3: CRFBPC237A/C264A: CRF-BP derivative lacking the cysteines of the fourth disulfide bridge (C237/C264) (protein, UniProt P24387 25-322, looked up, variant C237A C264A)
Corticotropin-releasing …: B1 Corticotropin-releasing … with C213A, C240A
**Q.** Which “affinity for r/hCRF compared with WT CRF-BP” value (r/hCRF) does the source give for B3 here?
**A.** The value was “indistinguishable from that of WT CRF-BP”.

**Q.** And the “affinity for rUcn 1 compared with WT CRF-BP” value (rUcn 1)?
**A.** Its value is “indistinguishable from that of WT CRF-BP”.

B4: CRF-BPC277A/C318A: CRF-BP derivative lacking the cysteines of the fifth disulfide bridge (C277/C318) (protein, UniProt P24387 25-322, looked up, variant C277A C318A)
Corticotropin-releasing …: B1 Corticotropin-releasing … with C253A, C294A
**Q.** Which results are given for B4?
**A.** affinity for r/hCRF compared with WT CRF-BP (r/hCRF): indistinguishable from that of WT CRF-BP; affinity for rUcn 1 compared with WT CRF-BP (rUcn 1): indistinguishable from that of WT CRF-BP

B5: L61A: CRF-BP alanine mutant (protein, UniProt P24387 25-322, looked up, variant L61A)
Corticotropin-releasing …: B1 Corticotropin-releasing … with L37A
**Q.** Which “loss of affinity for r/hCRF” value (r/hCRF) does the source give for B5 here?
**A.** Its value is “partial”.

**Q.** What about the “loss of affinity for rUcn 1” value (rUcn 1) of the same molecule?
**A.** Its value is “partial”.

B6: E121A: CRF-BP alanine mutant (protein, UniProt P24387 25-322, looked up, variant E121A)
Corticotropin-releasing …: B1 Corticotropin-releasing … with E97A
**Q.** Which “loss of affinity for r/hCRF” value (r/hCRF) does the source give for B6 here?
**A.** Its value is “partial”.

**Q.** And the “loss of affinity for rUcn 1” value (rUcn 1)?
**A.** The value was “partial”.

B7: F123A: CRF-BP alanine mutant (protein, UniProt P24387 25-322, looked up, variant F123A)
Corticotropin-releasing …: B1 Corticotropin-releasing … with F99A
**Q.** Which “loss of affinity for r/hCRF” value (r/hCRF) does the source give for B7 here?
**A.** Its value is “partial”.

**Q.** What about the “loss of affinity for rUcn 1” value (rUcn 1) of the same molecule?
**A.** The value was “partial”.

B8: Q188A: CRF-BP alanine mutant (protein, UniProt P24387 25-322, looked up, variant Q188A)
Corticotropin-releasing …: B1 Corticotropin-releasing … with Q164A
**Q.** What does the source list for B8?
**A.** loss of affinity for r/hCRF (r/hCRF): partial; loss of affinity for rUcn 1 (rUcn 1): partial

B9: W116A: CRF-BP alanine mutant (protein, UniProt P24387 25-322, looked up, variant W116A)
Corticotropin-releasing …: B1 Corticotropin-releasing … with W92A
**Q.** What does the source list for B9?
**A.** loss of affinity for r/hCRF (r/hCRF): complete; loss of affinity for rUcn 1 (rUcn 1): complete

B10: Y211A: CRF-BP alanine mutant (protein, UniProt P24387 25-322, looked up, variant Y211A)
Corticotropin-releasing …: B1 Corticotropin-releasing … with Y187A
**Q.** For B10, which “loss of affinity for r/hCRF” value (r/hCRF) is on record?
**A.** Its value is “complete”.

**Q.** And the “loss of affinity for rUcn 1” value (rUcn 1)?
**A.** Its value is “complete”.
